Reference: the DeepSol protein solubility set

Test: soluble on expression in E. coli; label from the status in PepcDB or PDB records

Soluble on expression in E. coli, not soluble:
GPGSMLRVSLACRVTAARSAAPHTTSSSSSLVESVTSVFRSSRYLRHAPPRLYVTCSHDQGIPLHGCGRHMTTVLDVSREASPNAPPHTQSIYLLTSTSISDVEFKDSAAQSQVLVGLPQVQSIDAIHRFCDTYAATLSRVHHILLPGGVSPLQSSLIKQLLEHIPQARLVCNGFGHALLTNATFHDGVQRAVLENEPDAPPELLRFAALPADRVSSMADGDTVAVDVAKSEAESSAPVAARALRVVAVKSKGQQQRRREHSQTHHPAHFTNEALFYYDDVFNALFVGHTLHRLPWLPTVLTEASRELFLPMPPPLATQRPLSRPSPLLDTWRVLESCEDVVEALRRTPELERVLAGSYGELCGNVEDCIAGLESSSDALERLRSRLARRLTTDTSRDVHRWSTALLKRIVHEVVCTQKASEPTSSEVQEAFLCWARTDGEWGRLSTCLAHAAMVLPPSTETGEADGASSSAADSFAAHDSVPAAGATAAGESAAPEALQGTHGVELLVAVFNRKGLQGLIRTVQRETIDVQVFLAMSEEDLKKVFKATFGITKRLMLLQDELRKNL
MVTKTEEIQLNQLENQVENGGGGVWEYLCLVRKLKVRRSEIVLKHGLSILNDSGKRSALGPDEWTLYEQVAIAAMDCQSLGVAQNCIKVLKKKFPESKRVGKLEALLLEAKGMWEEAEKAYTSLLEDNPLDQVIHKRKVAMAKAQGKSSLAIEHLNKYLEVFMADHDAWRELAEIYVSLQMYKQAAFCYEELILTQPTLPLYHLAYADVLYTIGGLENLIAARKYYAATIDLTGGKSTRALLGICLCGSAIAQISKGRNKEDKDMAAPELQSLAATALEREYKQKAPAKLNLLTSALRNLKIA
MGSDKIHHHHHHMRGVLTMIRLFKAIPELELPVYSGEDSPVDGTEKTTGFLISNHVPGEQVEETLLVASAEIKTSQTGREWLQFTFNSPSGSCKGKQWLNQGTAEEAMRPYLETGIVHVSAKVDEYPVDSGNKSLTVQTVKAVHDQSGTAYLPQMPAGESAKDYRDQLIGLIEKMETPLRQVAHRVVSAYWDDFSTRPAALYHHHAYIGGLLKHTACMMTIGFGICQSERPDLTLLQCIQEAEADHKNDLFQAGERDMRQFAWDDSFDALYQSARSIALLNERPHQDELLLGILLHDIGKIFEYTHLGASGDRFSRLVQTEPASEKLSGIALDPNGVLIGHMPYGCFVLEQALQTEAVRLPVDQYHRLMHMILSHHGKKEWGSSVTPQTTDAWYLHAIDLLDARKEKWRQSQLT
MSLLLEILDLSRSTYYYQVKRLAQGDKDIELKHVIREIYDEHKGNYGYRRIHMELRNRGFVVNHKKVQRLMKVMGLAARIRRKRKYSSYKGEVGKKADNLIKRHFEGSKPYEKCYTDVTEFALPEGKLYLSPVFDSYNCEIIDFTLSRSPNLKQAQTMLEKTFPADSYSGTILHSDQGWQYQHQSYHDFLESKGILPSMSRKGNSPDNGMMDSFFGILKSEMFYGLETTYQSLDKLEEAITDYIFYYNNKRIKAKLKGLSPVQYRTKSFQEGHHHHHH
MLTEQQFRDEIRGFVDKMNENNFHWQLKEIGKYARETHLKTLSDGRVITSETHILYNSTYQVPTIWFNFFENNGSPLPFRTVIRDVLNISETEESEASIRSRISHYEHPFMGVLYYNIHPCNTSNIMKELNTDRSYLMSWFSVYGQQIGLKLPDRVL
MSLSTVTMILGQSGTGKSTSLRNLDPSQTLLIQAIKKPLPFKSGNWKPANKENPAGSIFVCDSAATIVGAMKRTKRPVIVIDDFQYVMANEFMRRSAEKGFDKFTEIGRNAWDILVEAARLPDEVRVYVLSHVETTDDGRTKIKTIGRMLDEKITLEGMVSIVLKTVVQDGQHFFATRNNGSDTVKTPMGMFDADLIENDLAAVDTAIYQYYGLTEAEGHHHHHH
MKAYIQVKQVGKRKCSIEKMPIDFPTPPASVQELIEAVVCWQVKEYNERLQQSEMLKYLTCEEMEDKAAAGKVGFEANYNGRPAVETEAIINALQSYEDGIFRIFLDDAELGELSSSVQLKEESTLTFIRLAMLSGRLW
MNKTNQIVDLLTNKQNNSIQRRDNLVFVKNEQEFKDILDSTISLSNVYDPLLGNGCEQEKIKELTILNNSVDISKIEEYTKTLESKVDDLYNNVSNQLIQDYQKNENTSANNIIMKNEELLNSHLKEVEKICEQLIDEWKIEILGEVNFKFQQQLIEIDQKQEHKLKVKSLINEDSFLTKRQVKNKNKILTEFEKHRSQITQNYLNKRSDILKKEYDELLKDDKLFELSSGDNWNNFKKITLFISNEIGIINDLEDLLNHQELIRTRNYTKRAILNQHHINGHFKDEKKYLKSLYDLRVKFMYGLGSEIVILKFLIEHYKKLNSLRLRLETLNHPLSNYAVYFDILNRIEKQTQLLAKIETLKYDNYDFNADVILDDLESNITKINEIKHNSNVLNKTKVIKTIIEPKYELELISKDDKVDGVKVYVNDQEILSKLEHHHHHH
MRIRSLEIEHMRAITHLVLKDLPSNGVIVISGENERGKSTIMEAIKLVLGEKHDTNKQSVKAIQPKGHDVGTRICLEADLGPVRFRVSKVFNKKKSCELTIFEPKPANYTGKEANSQLSGLLDAHLDHDLFSALFVEQGDITSMLSAAGISSVTQALGGATDHASNEDNALILTVEKEKDRYFTKSGATKKGGELGIAETAVAEAEQAVLAATQQKETLDRRVESVAGFQRDRDQAQQDLPNARDTLTTREQELKTAELAAQQLENASAQLKIAQDQERILQSDIDAREELRKEQSRLSEALQIRIQEELDLKEKTDSLSEAREKLRSQHEKARADAEKMRQRLEKLKESLRLDTLRTSYQELLTVSKQLEELRTVPEVTGAQLSAAEEANDRAKAAAYVVEAHAATMLINAAQPVTIQIDGEAVALNDTEWTTRITSELTAVIGDVSLTIEPGEQGEQLEQKRAETQETLRAALGDAKDIATLRLQREAWVDAEKELQSLNKRKNEIAMRFGDKADLERDIADAELQVAELDIQESDDLQQLIDDAEKEYLQYQQDADAYQKELGAWDSNDIQVRYATVKARVEAERENLDRCDQKIKAQEEQRPLEVLHSELHNVTAELKRQQDHLAELRETDNLQVAKDLYAGAAARVESLENTIRDCEANLKALQTQIDYAAGAAEQLDVALAQRDVALRVLEAVHHRAQAAMLLYTTLIRHRDIARQKYAAPFTQRLTEFAAPVFGKGVGFELGSDLSVVKRTMKEQTVGVDELSGGAQEQLSIVQRFAVADLASQGGETVPVFIDDALGSTDSNRLEMMATLFSRQGHNQQVFVLTCMPQRYDYVAGKHELRISDLMQ
MGHHHHHHSHMTKIIPVASGKGGVGKTSFVANVGYKLSSLGKTVILVDLDLGGSNLHTCLGVKNKGVGIGSFINKKSKSFSDLVCKTSYDKLYLIPGDALYTGTANLPFSIKKKIIESIQKDLIADFIFLDLGSGTSYNTIDFYLASYSGVIVTIPETPSILNAYSFLKNALYRLLYLGFP
DLRGDLHMHTDYSEGAESLETMVEKAESMGYEYIAVTDHSRSQRIANGMDIETLKEQWKEIKSLSKRFRIKVLRGSEVEILKDGSLDYPDEILKELDVVVGAVHSGFAASEREMTGRIITALENKHLDILAHPSGRLLGKREAYAVNFGKVFEAAAENGKVMEINCQPSRLDLNDELIFRAKDYELKFCISTDSHSVSDLASMRYGLGQARRSWLEKEDIVNTYPYSRLKEVFKKLRD

Soluble on expression in E. coli, soluble:
MFQASMRSPNMEPFKQQKVEDFYDIGEELGSGQFAIVKKCREKSTGLEYAAKFIKKRQSRASRRGVSREEIEREVSILRQVLHHNVITLHDVYENRTDVVLILELVSGGELFDFLAQKESLSEEEATSFIKQILDGVNYLHTKKIAHFDLKPENIMLLDKNIPIPHIKLIDFGLAHEIEDGVEFKNIFGTPEFVAPEIVNYEPLGLEADMWSIGVITYILLSGASPFLGDTKQETLANITAVSYDFDEEFFSQTSELAKDFIRKLLVKETRKRLTIQEALRHPWITPVDNQQAMVRRESVVNLENFRKQYVRRRWKLSFSIVSLCNHLTRSLMKKVHLRPDEDLRNCESDTEEDIARRKALHPRRRSSTS
MASKYAVKLKTDFDNPRWIKRHKHMFDFLDINGNGKITLDEIVSKASDDICAKLEATPEQTKRHQVCVEAFFRGCGMEYGKEIAFPQFLDGWKQLATSELKKWARNEPTLIREWGDAVFDIFDKDGSGTITLDEWKAYGKISGISPSQEDCESTFRHCDLDNAGDLDVDEMTRQHLGFWYTLDPEADGLYGNGVP
SEWLKSTDYGKYEGLTKNYMDYLSRLYEREIKDFFEVAKIKMTGTTKESKKFGLHGSSGKLTGSTSSLNKLSVQSSGNRRSQSSSLLDMGNMSASDLDVADRTKFDKIFEQVLSELEPLCLAEQDFISKFFKLQQHQSMPGTMAEAEDLDGGTLSRQHNCGTPLPVSSEKDMIRQMMIKIFRCIEPELNNLIALGDKIDSFNSLYMLVKMSHHVWTAQNVDPASFLSTTLGNVLVTVKRNFDKCISNQIRQMEEVKISKKSKVGILPFVAEFEEFAGLAESIFKNAERRGDLDKAYTKLIRGVFVNVEKVANESQKTPRDVVMMENFHHIFATLSRLKISCLEAEKKEAKQKYTDHLQSYVIYSLGQPLEKLNHFFEGVEARVAQGIREEEVSYQLAFNKQELRKVIKEYPGKEVKKGLDNLYKKVDKHLCEEENLLQVVWHSMQDEFIRQYKHFEGLIARCYPGSGVTMEFTIQDILDYCSSIAQSH
MTVFRQENVDDYYDTGEELGSGQFAVVKKCREKSTGLQYAAKFIKKRRTKSSRRGVSREDIEREVSILKEIQHPNVITLHEVYENKTDVILILELVAGGELFDFLAEKESLTEEEATEFLKQILNGVYYLHSLQIAHFDLKPENIMLLDRNVPKPRIKIIDFGLAHKIDFGNEFKNIFGTPEFVAPEIVNYEPLGLEADMWSIGVITYILLSGASPFLGDTKQETLANVSAVNYEFEDEYFSNTSALAKDFIRRLLVKDPKKRMTIQDSLQHPWIKPKDTQQALSRKASAVNMEKFKKFAARKKWKQSVRLISLCQRLSRSFLSRSNMSVARSD
MAKVPDLFEDLKNCYSENEDYSSAIDHLSLNQKSFYDASYGSLHETCTDQFVSLRTSETSKMSNFTFKESRVTVSATSSNGKILKKRRLSFSETFTEDDLQSITHDLEETIQPRSAPYTYQSDLRYKLMKLVRQKFVMNDSLNQTIYQDVDKHYLSTTWLNDLQQEVKFDMYAYSSGGDDSKYPVTLKISDSQLFVSAQGEDQPVLLKELPETPKLITGSETDLIFFWKSINSKNYFTSAAYPELFIATKEQSRVHLARGLPSMTDFQIS
MEEHPRAWIISVGNELLIGRTINTNAAWLGSRLTLLGFEVERVVTVPDRVEDIAEEVGRALGRARVVITTGGLGPTYDDVTLQGVAMALGRGLKLHPGALEMVRRFYSKRGLGLTEDRVKMAMLPDGAEPLENPVGAAPGAVVEARGSLVASLPGVPSEMEAMFEKALRPLLEEIAPPGAVVECGIAVVGVPESSLAPYIKEASRVSPRVYVKSHPQGSEIGKPLVRVRVLARASTLEEARAEALKALEKVRRGVEELGGSISEEDSC
METYDVLVIGGGPGGSTAARYAAKYGLRTLMIEKRPEIGSPVRCGEGLSKGILNEADIKPDKSFIANEVKGARIYGPSEKRPIILQSEKAGNEVGFVLERDKFDKHLAALAAKAGADVWVKSPALGVIKEDGKVAGAKIRHENNVVEVRAKMVIAADGFESEFGRWAGLKSVILARNDIISALQYRMINIDVDPDYTDFYLGSIAPGGYIWVFPKGEGMANVGIGSSINFIHNRLELKNYLDRFIENHPGLKKGQDIQLVTGGVSVSKVKMPITMPGLMLVGDAARLIDPITGGGIANAIVSGMYAAQVSKEAIESNDYSPQMMGKYEKLVKDRFERKHLRNWVAKEKLAQLSDETLDKLVDIVSEQVLTTISVEAILKAIAEKYPEVVKELEDLILEHHHHHH
